Assay results as given in patent publication US20120204275A1 (NEOTOPE BIOSCIENCES, published 2012).

Target: T1, full-length ApoE4 (human, UniProt P02649 19-317)
T1 construct: In cell lysate; P02649 is printed for the E3 allele (residues 19-317); also called ApoE4(1-299)
T1 chain: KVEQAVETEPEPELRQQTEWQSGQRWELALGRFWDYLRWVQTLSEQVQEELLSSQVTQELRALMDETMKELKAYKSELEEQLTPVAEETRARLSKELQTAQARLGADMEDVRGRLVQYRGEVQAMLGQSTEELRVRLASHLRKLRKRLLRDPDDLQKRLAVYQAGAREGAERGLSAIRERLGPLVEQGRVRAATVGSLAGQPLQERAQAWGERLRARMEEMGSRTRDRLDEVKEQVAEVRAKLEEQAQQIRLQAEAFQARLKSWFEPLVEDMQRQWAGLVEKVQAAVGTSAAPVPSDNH
Assay: immunoprecipitation from cell lysate, western blot with 1F9
Experimental: Cell Lysates preparation: Media was aspirated. Cells were treated for desired time by adding fresh media containing regulator. Media was then removed and cells rinsed with ice-cold PBS to harvest cells under nondenaturing conditions. PBS was removed, and 0.5 ml ice-cold 1× cell lysis buffer was added to each plate (10 cm). The plates were incubated on ice for 5 minutes. Cells were scraped off the plates and transferred to microcentrifuge tubes. The cells were kept on ice, and sonicated on ice three times for 5 seconds each. The samples were then microcentrifuged for 10 minutes at 14,000×g, 4° C., and the supernatant was transferred to a new tube. When necessary, lysate was stored at −80° C.
The membrane was then incubated with primary antibody anti-ApoE4 antibody 1F9 (MBL International Corp., Cat# M067-3) in 10 ml primary antibody dilution buffer with gentle agitation overnight at 4° C. […]
Lysates of full-length ApoE3, full-length ApoE4, ApoE3(1-272), and ApoE4(1-272) lysates were detected using Western blot with 1 μg/ml 1F9 (Medical and Biological Laboratories) (Lanes 1-4; FIG. 3). […] The m15G8 immunoprecipitation were then detected using Western blot with 1 μg/ml 1F9 (Lanes 5-8; FIG. 3). […]

binding result: no binding
B1: mouse monoclonal antibody 15G8 (antibody, V domains shown)
VH: EVKLVESGGGLVKPGGSLKLSCAASGFTFSFYAMSWVRQTPEKRLEWVASLSRGGSTYYPDSVKGRFTISRDNARNTLYLQMSSLRSEDTAMFYCAREGATALYAMDYWGQGTSVTVSS
VL: DVLMTQTPLSLPVSLGDQASISCRSSQSIVHSNGNTYLQWYLQKPGQSPKLLIYKVSNRFSGVPDRFSGSGSGTDFTLKISRVEAEDLGIYYCFQGSHVPWTFGGGTKLEIK
notes: Same variable regions as 12C12 and 15E10; also called m15G8; mouse 15G8
